Measurements taken from patent publication US20150030595A1 (ANTIBODY AND RECEPTOR THERAPEUTICS, published 2015).
Where two headings read alike, the source gives them in different places.

T1: ACVR2B-Fc fusion protein (human, UniProt Q13705 19-137)
T1 construct: also called water-soluble ACVR2B
T1 sequence: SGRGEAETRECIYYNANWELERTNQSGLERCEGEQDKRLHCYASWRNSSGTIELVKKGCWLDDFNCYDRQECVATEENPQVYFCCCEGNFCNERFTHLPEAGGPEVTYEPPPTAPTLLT

T2: C-terminally active myostatin (R&D systems) (UniProt O14793 267-375, limits assumed)
T2 construct: mature
T2 sequence (looked up): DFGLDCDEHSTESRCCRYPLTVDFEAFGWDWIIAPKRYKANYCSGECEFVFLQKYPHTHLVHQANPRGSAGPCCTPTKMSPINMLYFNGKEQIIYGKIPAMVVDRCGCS


Key:
[1] = molecular target: T3, Fc; assay: phage ELISA, Fc coated
T3 construct: domain: Fc
Method: (§1) Colonies obtained from a group of the polyclonal phage antibodies having high binding capacity were cultured at a temperature of 37° C. for 16 hours in a 96-deep well plate (Bioneer 90030) containing 1 ml of a medium supplemented with 2×YTCM, 2% glucose, and 5 mM MgCl₂. 100 to 200 μl of the cultured cells were taken, and diluted with 1 ml of a medium supplemented with 2×YTCM, 2% glucose, and 5 mM MgCl₂ so that the OD₆₀₀ value of the cultured cells reached 1. Thereafter, the cells were cultured at a temperature of 37° C. for 2 to 3 hours in a 96-deep well plate so that the OD₆₀₀ value reached 0.5 to 0.7. Then, the cells were infected with an […] so that an MOI value became 1:20, and then cultured at a temperature of 30° C. for 16 hours in a medium supplemented with 2×YTCMK, 5 mM MgCl₂, and 1 mM IPTG. The cultured cells were centrifuged (at 4,500 rpm and 4° C. for 15 minutes) to collect a supernatant. Then, the supernatant was thoroughly dissolved in 4% PEG 6000 and 3% NaCl, and reacted on ice for an hour. The resulting reaction mixture was centrifuged again (at 8,000 rpm and 4° C. for 20 minutes), and the pellet was dissolved in PBS, and then centrifuged (at 12,000 rpm and 4° C. for 10 minutes) to obtain a supernatant, which was transferred to a new tube and stored at 4° C. Subsequently, a 96-well immunoplate was coated with antigens at a concentration of 100 ng per well by treating the immunoplate with the antigens at 4° C. for 16 hours, and each well was then blocked with skim milk (4%) dissolved in PBS. Each well was washed with 0.2 ml of PBS-Tween 20 (0.05%), and 100 μl of the monoclonal scFv-phages obtained by the above-described method were added to each well, and then reacted at room temperature for 2 hours. Each well was again washed four times with […] of PBS-Tween 20 (0.05%), and a secondary antibody, anti-M13-HRP, was diluted at 1:2000, added to each well, and then reacted at room temperature for an hour. Each well was washed with […] of PBS-Tween 20, colorimetrically developed, and then measured for optical density at 490 nm.

[2] = molecular target: T3, Fc; assay: phage ELISA, Fc coated; remark: listed apart in the source
[3] = molecular target: T1, ACVR2B-Fc fusion protein; assay: phage ELISA, ACVR2B coated
Method: as §1

[4] = molecular target: T1, ACVR2B-Fc fusion protein; assay: phage ELISA, ACVR2B coated; remark: listed apart in the source
[5] = molecular target: T4, anti-myc antibody coated on the ELISA plate; assay: phage ELISA, anti-myc coated
T4 construct: also called a-MYC; a-myc
Method: as §1

[6] = molecular target: T4, anti-myc antibody coated on the ELISA …; assay: phage ELISA, anti-myc coated; remark: listed apart in the source
[7] = molecular target: T1, ACVR2B-Fc fusion protein; assay: phage ELISA; OD on ACVR2B divided by OD on a-myc
[8] = molecular target: T2, C-terminally active myostatin (R&D …); assay: ELISA, coating 1 ug/ml myostatin, binding 10 nM, anti-human Fc HRP
[9] = molecular target: T1, ACVR2B-Fc fusion protein; assay: SPR (ProteOn XPR36), ACVR2B-Fc coated on the chip, Fc channel as reference
Method: This experiment was performed using a ProteOn XPR36 instrument (Bio-Rad). First, a sensor chip (GLC) was activated by reacting 0.1 M EDC and 0.025 M sulfo-NHS (Bio-Rad) for 60 seconds. […] The coating procedure was completed by allowing 1 M ethanolamine-HCl) (pH 8.5) to flow at the coated chip for 200 seconds. To test the bound proteins, the chip was rotated at an angle of 90°, and stabilized by allowing DPBST (PBS with 0.005% Tween 20) to flow on the chip for 30 minutes.

Binder | OD490 [1] | OD490 [2] | OD490 [3] | OD490 [4] | OD490 [5] | OD490 [6] | Ratio [7] | binding result [8] | binding result [9]
ACVR2B A06 (monoclonal scFv-phage) (scFv, V domains shown, also called A6) VH: VQLVQSGGGLVQPGRSLRLSCTASGFTFGDYAMSWVRQAPGKGLEWVGFIRSKRYDGTAEYAASVKGRFTISRDDSKNSLYLQMNSLRAEDTAVYYCARGHYAMDVWGQGTTVTVSS VL: DIQMTQSPSSLSASVGDRVTITCRASRSISNYLNWYQQKPGKAPKLLIYAASSLQSGVPSRFSGSGSGTDFTLTISSLQPEDFATYYCQQSYDTPFTFGLGNQLEIK | 0.046 OD | 0.046 OD | 2.96 OD | 2.96 OD | 0.704 OD | 0.703 OD | 4.21 |  | 
ACVR2B D11 (monoclonal scFv-phage) (scFv, V domains shown) VH: MQLVQSGGGLVQPGRSLGLSCTASGFTFGDYAMSWVRQAPGKGLEWVGFIRSKAYGGTTEYAASVKGRLTISRDDSKSIAYLQMNSLRAEDTAVYYCARGHYGMDVWGQGTTVTVSS VL: DIQMTQSPSSLSASVGDRVTITCRASQNISNFLNWYQQKPGKAPKLLIYSASRLQRGVPSRFSGSGSGTDFTLTISSLQPEDFATYYCQQSYSTPYTFGQGTKLEIK | 0.0429 OD | 0.042 OD | 3.05 OD | 3.05 OD | 0.834 OD | 0.833 OD | 3.66 |  | 
ACVR2B D07 (monoclonal scFv-phage) (scFv, V domains shown, also called D7) VH: QVQLVQSGAEVKKPGASVKVSCKASGYTFTSYYMHWVRQAPGQGLEWMGIINPSGGSTSYAQKFQGRVTMTRDTSTSTVYMELSSLRSEDTAVYYCAKDQSRGWYSNFDSWGQGTLVTVSS VL: DIQMTQSPSTLSASVGDRVTITCRASQTVSNWLAWYQLKPGKAPKLLIYKASSLESGVPSRFSGTGSETEFTLTISSLQPDDFATYYCQQYHSYPITFGQGTRLEIK | 0.0428 OD | 0.042 OD | 2.66 OD | 2.66 OD | 0.241 OD | 0.24 OD | 11 |  | 
EGF4-6-Fc (Fc fusion, also called 4M-Fc; not shown: human antibody Fc region of the pYK602-Fc vector and any SfiI-junction residues) KDGPCVINGSPCQHGGTCVDDEGRASHASCLCPPGFSGNFCEIVANSCTPNPCENDGVCTDIGGDFRCRCPAGFIDKTCSRPVTNCASSPCQNGGTCLQHTQVSYECLCKPEFTGLTCVKKRALSPQQVTRLPSGYGLAYRLTPGVHELPVQQPEHRILKVSMKELNKKTPLLTEG |  |  |  |  |  |  |  | binds | binds
EGF3-6-Fc (DLK1 deletion mutant without the 1st and 2nd EGF-like repeat domains) (Fc fusion, also called 3M-Fc; not shown: human antibody Fc region of the pYK602-Fc vector and any SfiI-junction residues) DVRACSSAPCANNGTCVSLDDGLYECSCAPGYSGKDCQKKDGPCVINGSPCQHGGTCVDDEGRASHASCLCPPGFSGNFCEIVANSCTPNPCENDGVCTDIGGDFRCRCPAGFIDKTCSRPVTNCASSPCQNGGTCLQHTQVSYECLCKPEFTGLTCVKKRALSPQQVTRLPSGYGLAYRLTPGVHELPVQQPEHRILKVSMKELNKKTPLLTEG |  |  |  |  |  |  |  | binds | binds
ACVR2B B08 (monoclonal scFv-phage) (scFv, V domains shown, also called B8) VH: VQLVQSGGGLVHPGQSLRLSCTGSGFPFGDYSMTWVRQAPGKGLEWVGLVRSKAYGGTTEYAASVKGRFIMSRDDSRSIAYLQMNSLRAEDTAVYYCARGHYGMDVWGQGTTVTVSS VL: DIQMTQSPSSVSASVGDRVTITCRASQGISNWLAWYQQKPGKAPKLLIYAASSLQSGVPSRFSGSGSGTDFTLTISSLQPEDFATYYCQQAKSYPYTFGQGTKVEIK | 0.0455 OD | 0.045 OD | 2.64 OD | 2.64 OD | 1.16 OD | 1.16 OD | 2.28 |  | 
ACVR2B C08 (monoclonal scFv-phage) (scFv, V domains shown, also called C8) VH: VQLVESGGGLVQPGGSLRLSCSASGFTFSSYAMHWVRQAPGKGLEYVSAISSNGGSTYYADSVKGRFTISRDNSKNTLYLQMNSLRAEDTAVYYCAKTYGGYGNAFDIWGQGTMITVSS VL: DIQMTQSPSSVSASVGDRVTITCRASQGISRWLAWYQQKPGKAPKLLIYAASNLQSGVPSRFSGSGSGTDFTLTINSLQPEDFATYFCQQGKSFPYTFGPGTKVEIK | 0.0721 OD | 0.072 OD | 2.86 OD | 2.87 OD | 1.17 OD | 1.17 OD | 2.45 |  | 
ACVR2B C07 (monoclonal scFv-phage) (scFv, V domains shown, also called C7) VH: QMQLVQSGGGLVKPGGSLRLSCAPSGFTFRDYHMSWIRQAPGKGLEWISNISNSGTNIYYADSVKGRFTISRDNAKNSLYLQMNSLRAEDTAVYYCARGHYGMDIWGQGTTITVSS VL: DIQMTQSPSSLSASVGDRVTITCRASQGIANYLAWYQQKPGKAPKLLIYAASTLQSGVPSRFSGSGSGTDFTLTISSLQPEDFATYYCQQVKSYPLSFGGGTKVEIK | 0.0435 OD | 0.043 OD | 2.98 OD | 2.98 OD | 0.441 OD | 0.44 OD | 6.75 |  | 
ACVR2B A09 (monoclonal scFv-phage) (scFv, V domains shown, also called A9) VH: VQLVESGGGLVQPGRSLRLSCAASGFTFDSYWMSWVRQAPGKGLEWVANIKYDGSEKHYMDSVKGRFTISRDNAKNSVYLQMNSLRAEDTAVYYCAKGAWLDYWGQGTQVTVSS VL: IQMTQSPSAMSASVGDRVTITCRASQGISNYLAWFQQKPGKVPKRLIYAASSLQSGVPSRFSGSGSGTGFTLTITSLQPEDFATYYCLQHKSYPYTFGQGTKLEIK | 0.0482 OD | 0.048 OD | 2.18 OD | 2.18 OD | 1.17 OD | 1.17 OD | 1.86 |  | 
ACVR2B B12 (monoclonal scFv-phage) (scFv, V domains shown) VH: VQLVQSGAEVKKPGESLKISCKTSGYTFTHYWIGWVRQMPGKGLEWMGRINPTDSYADYSPSFQGHVIMSVDKSVSTAYLHWNSLKASDTAMYYCARGTALGVWGQGTTVTVSS VL: IQMTQSPSAMSASVGDRVTITCRASQGISNYLAWFQQKPGKVPKRLIYAASSLQSGVPSRFSGSGSGTEFTLTITSLQPEDFATYYCLQHKSYPYTFGQGTKLEIK | 0.0447 OD | 0.044 OD | 2.76 OD | 2.75 OD | 1.46 OD | 1.46 OD | 1.89 |  | 
ACVR2B F08 (monoclonal scFv-phage) (scFv, V domains shown, also called F8) VH: VQLVESGGGLVQPGGSLRLSCAASGFTFSDHYMDWVRQAPGKGLEWVGRTRNKANSYTTEYAASVKGRFTISRDDSKNSLYLQMNSLRAEDTAVYYCTKGAWLDYWGQGTLVTVSS VL: IQMTQSPSAMSASVGDRVTITCRASQGISNYLAWFQQKPGKVPKRLIYGASSLQGGVPSRFSGSGSGTEFTLTITSLQPEDFATYFCLQHKSYPLTFGPGTKVEIK | 0.117 OD | 0.116 OD | 2.94 OD | 2.94 OD | 0.783 OD | 0.783 OD | 3.75 |  | 
EGF6-Fc (Fc fusion, also called 6M-Fc; not shown: human antibody Fc region of the pYK602-Fc vector and any SfiI-junction residues) PVTNCASSPCQNGGTCLQHTQVSYECLCKPEFTGLTCVKKRALSPQQVTRLPSGYGLAYRLTPGVHELPVQQPEHRILKVSMKELNKKTPLLTEG |  |  |  |  |  |  |  | binds | no binding
ACVR2B B11 (monoclonal scFv-phage) (scFv, V domains shown) VH: VQLVESGGGLVQPGRSLRLSCAASGFTFDNHAMHWVRRAPGKGLEWVSGISWNGGTTAYADSVKGRFSIFRDNAEKSLYLQMNSLRAEDTAVYYCARGSSSGRYYFDYWGQGTLVTVSS VL: DIQMTQSPSSVSASVGDRVTITCRASQGISTYLNWYQHQSGKAPKLLIYGAFRLQSGVPSRFSGSGSGTDFTLTISNLQPEDFATYYCQQAKNFPLTFGGGTKVDIK | 0.0477 OD | 0.047 OD | 2.99 OD | 2.99 OD | 0.657 OD | 0.657 OD | 4.55 |  | 
